Measurements: paper PMC9398005, “A Drosophila Su(H) model of Adams-Oliver Syndrome reveals cofactor titration as a mechanism underlying developmental defects”

Columns and labels:
[1] = target: Flag-Rbpj WT full length (mouse, UniProt P31266 1-526); assay: EMSA; poly(dI-dC); single and double occupancy; anti-Flag supershift; ITC: 50 mM sodium phosphate, 150 mM NaCl, 10 C (pH not stated); EMSA purified: 3.4 nM probe, 10 min room temperature; EMSA IVT: 10 mM Tris-HCl pH 7.5, 100 mM NaCl, 0.1 mM EDTA, 0.5 mM DTT, 4% glycerol, poly(dI-dC); conditions: protein: ivt; tags: Flag; label: 32P; 5' overhang 4 nt both ends
Sequence of Flag-Rbpj WT full length (P31266 whole entry): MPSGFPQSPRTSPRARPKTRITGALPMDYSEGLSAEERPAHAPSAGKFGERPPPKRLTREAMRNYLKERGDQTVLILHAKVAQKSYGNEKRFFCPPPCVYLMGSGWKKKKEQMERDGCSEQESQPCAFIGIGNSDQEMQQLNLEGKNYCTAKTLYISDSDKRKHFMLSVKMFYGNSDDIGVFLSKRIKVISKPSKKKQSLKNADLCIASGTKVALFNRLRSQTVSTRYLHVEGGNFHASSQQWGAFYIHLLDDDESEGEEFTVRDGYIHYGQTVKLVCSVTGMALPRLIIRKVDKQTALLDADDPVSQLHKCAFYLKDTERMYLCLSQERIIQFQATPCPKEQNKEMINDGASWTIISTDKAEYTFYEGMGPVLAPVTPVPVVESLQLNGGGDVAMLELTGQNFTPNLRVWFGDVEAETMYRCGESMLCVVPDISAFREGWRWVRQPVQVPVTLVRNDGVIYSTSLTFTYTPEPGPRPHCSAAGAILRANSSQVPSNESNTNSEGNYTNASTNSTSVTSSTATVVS

[2] = target: Rbpj K195E (mouse, UniProt P31266 53-474, K195E); assay: ITC; 10 C; ITC: 50 mM sodium phosphate, 150 mM NaCl, 10 C (pH not stated); EMSA purified: 3.4 nM probe, 10 min room temperature; EMSA IVT: 10 mM Tris-HCl pH 7.5, 100 mM NaCl, 0.1 mM EDTA, 0.5 mM DTT, 4% glycerol, poly(dI-dC); conditions: protein: recombinant; tags: GST removed by PreScission (pGEX-6P1); blunt
Sequence of Rbpj K195E (P31266 53-474 K195E): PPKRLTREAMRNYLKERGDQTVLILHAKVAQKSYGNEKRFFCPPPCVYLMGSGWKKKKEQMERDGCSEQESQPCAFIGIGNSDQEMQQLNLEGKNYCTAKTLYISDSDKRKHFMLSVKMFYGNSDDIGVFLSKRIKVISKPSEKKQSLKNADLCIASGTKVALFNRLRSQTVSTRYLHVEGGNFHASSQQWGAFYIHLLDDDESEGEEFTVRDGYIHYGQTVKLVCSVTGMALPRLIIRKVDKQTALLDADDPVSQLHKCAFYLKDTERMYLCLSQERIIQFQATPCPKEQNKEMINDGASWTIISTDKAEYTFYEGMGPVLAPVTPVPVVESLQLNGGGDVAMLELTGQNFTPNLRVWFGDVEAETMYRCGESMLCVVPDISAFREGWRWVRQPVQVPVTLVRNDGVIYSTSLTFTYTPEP

[3] = target: T1, Rbpj WT (core) (mouse, UniProt P31266 53-474); assay: as above; conditions: protein: recombinant; tags: GST removed by PreScission (pGEX-6P1); blunt
T1 sequence (P31266 53-474): as the sequence (P31266 53-474 K195E) above, with E143K counted along it

[4] = target: Rbpj E89G (mouse, UniProt P31266 53-474, E89G); assay: as above; conditions: protein: recombinant; tags: GST removed by PreScission (pGEX-6P1); blunt
Sequence of Rbpj E89G (P31266 53-474 E89G): as the sequence (P31266 53-474 K195E) above, with E37G, E143K counted along it

[5] = target: T1, Rbpj WT (core); assay: EMSA; ITC: 50 mM sodium phosphate, 150 mM NaCl, 10 C (pH not stated); EMSA purified: 3.4 nM probe, 10 min room temperature; EMSA IVT: 10 mM Tris-HCl pH 7.5, 100 mM NaCl, 0.1 mM EDTA, 0.5 mM DTT, 4% glycerol, poly(dI-dC); conditions: protein: recombinant; tags: GST removed by PreScission (pGEX-6P1); label: IRDye-700 at 5' end of strand 2; blunt

B1: EMSA probe with 2 RBPJ sites (dsDNA)
DNA 1: CCTGGAACTATTTTCCCACGGTGCCCTTCCGCCCATTTTCCCACGAGTCG
DNA 2: CTCGCGACTCGTGGGAAAATGGGCGGAAGGGCACCGTGGGAAAATAGTTC
**Q.** Does B1 bind [1]?
**A.** binds

B2: ITC 20-mer CSL duplex (dsDNA)
DNA 1: GGCACCGTGGGAAACTAGTG
DNA 2: CACTAGTTTCCCACGGTGCC
**Q.** B2 was tested. Which Kd [2] did it give?
**A.** 1160 ± 258 nM

**Q.** And the Kd [3]?
**A.** 74 ± 10.8 nM

**Q.** What about the Kd [4] of the same binder?
**A.** 440 ± 86.8 nM

B3: EMSA high affinity CSL probe (dsDNA)
DNA 1: CGAACGAGGCAAACCTAGGCTAGAGGCACCGTGGGAAACTAGTGCGGGCGTGGCT
DNA 2: AGCCACGCCCGCACTAGTTTCCCACGGTGCCTCTAGCCTAGGTTTGCCTCGTTCG
**Q.** Does B3 bind [5]?
**A.** binds
